Assay results reported in patent publication US20240409645A1.

What was measured:
[1] = target: T1, mouse common cytokine receptor γ-chain (IL-2Rγ) (mouse) (UniProt P34902); test: P.E. binding ELISA
T1 sequence (looked up): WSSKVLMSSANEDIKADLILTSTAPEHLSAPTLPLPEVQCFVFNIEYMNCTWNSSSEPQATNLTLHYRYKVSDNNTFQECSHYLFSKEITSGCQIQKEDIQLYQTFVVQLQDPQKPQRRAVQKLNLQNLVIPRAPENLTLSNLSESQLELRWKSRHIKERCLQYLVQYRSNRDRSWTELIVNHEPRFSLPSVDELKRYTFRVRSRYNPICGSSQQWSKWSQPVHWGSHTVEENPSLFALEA

mouse IL-2Rβ (mouse) = target: T2, mouse IL-2Rβ (mouse) (UniProt P16297); test: P.E. binding ELISA, mouse IL-2Rβ coated
T2 sequence (looked up): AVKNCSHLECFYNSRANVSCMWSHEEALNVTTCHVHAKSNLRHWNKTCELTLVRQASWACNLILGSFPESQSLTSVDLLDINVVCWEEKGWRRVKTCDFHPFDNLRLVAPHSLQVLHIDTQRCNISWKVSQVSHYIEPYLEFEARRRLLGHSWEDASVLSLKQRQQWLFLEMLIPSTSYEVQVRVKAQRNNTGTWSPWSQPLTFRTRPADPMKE

B1: FJ1427_P035MP04F12 (VHH)
VHH: QVQLQESGGGWVQVGESLRLSCVPSGRTFVSGIMGWFRQAPGKEREFVARIILNNNSTRYTDSVKGRFTISRDSAKNTMYLQMNTLRPEDTAVYYCAARDRYGSGNSLSPSAYDYWGQGTQVTVSS
- PE binding ELISA OD [1]: 0.049 OD450 nm

B2: FJ1427_P035MP07C02 (VHH)
VHH: EVQLVESGGGWVQVGESLRLSCAPSGRTFVSGIMGWFRQTPGKEREFVARIILNNNSTRYTDSVKGRFTISRDSAKNTMYLQMNTLRPEDTAVYYCAARDRYGSGNSLSPSAYDYWGQGTQVTVSS
- PE binding ELISA OD [1]: 0.044 OD450 nm

B3: FJ1427_P035MP06F09 (VHH)
VHH: QVQLVESGGGLVQAGGSLTLSCAASGRAFSNYPVGWFRQAPGKEREFVAAITWLSGSTLYADSVEGRFTISRDNAKNTVYLLMSSLKPEDTALYFCAAALKTITRGQNDYSYWGQGTQVTVSS
- OD450 nm (P.E. binding ELISA) (mouse IL-2Rβ (mouse)): 0.046 OD450 nm

B4: FJ1427 P035MP06A08 (VHH)
VHH: EVQLVESGGGLVQAGESLRLSCAASGQYFSTYSMAWFRRTPGKEREFVTIISESGGIKEYVDSVKGRFTVSRDNAKNTVYLQMNSLKPEDTAVYYCAAARDWFARNEYQYDYWGQGTQVTVSS
- OD450 nm (P.E. binding ELISA) (mouse IL-2Rβ (mouse)): 0.047 OD450 nm
